Measured values taken from publication PMC9482650, “Quantitative fragmentomics allow affinity mapping of interactomes” (Nature Communications, 2022).

Legend:
Assay in all cases: holdup assay
Parameters in all cases: key: below the threshold = too weak to quantify, mostly under pKd 3.1 to 4
Conditions in all cases: plain residues with an end cap or a label only (N-terminal biotin on a linker: ado-ado)
SNTB1, Q13884 = biological target: T1, SNTB1, Q13884
T1 sequence (Q13884 107-205, limits assumed, looked up): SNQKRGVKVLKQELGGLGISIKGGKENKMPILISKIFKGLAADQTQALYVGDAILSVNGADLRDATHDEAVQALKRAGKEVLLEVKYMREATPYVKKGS

Inadl_3, Q8NI35 = biological target: Inadl_3, Q8NI35
FRMPD2_2, Q68DX3 = biological target: FRMPD2_2, Q68DX3
APBA3_1, O96018 = biological target: T2, APBA3_1, O96018
T2 sequence (O96018 389-490, limits assumed, looked up): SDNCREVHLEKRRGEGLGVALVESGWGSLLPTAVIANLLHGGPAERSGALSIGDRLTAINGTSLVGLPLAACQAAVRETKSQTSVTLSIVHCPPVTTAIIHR

LNX2_3, Q8N448 = biological target: T3, LNX2_3, Q8N448
T3 sequence (Q8N448 463-564, limits assumed, looked up): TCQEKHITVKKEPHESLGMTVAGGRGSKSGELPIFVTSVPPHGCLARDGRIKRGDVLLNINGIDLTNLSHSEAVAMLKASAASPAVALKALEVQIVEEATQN

MAGI2_4, Q86UL8 = biological target: MAGI2_4, Q86UL8
LNX1_3, Q8TBB1 = biological target: LNX1_3, Q8TBB1
DLG2_2, Q15700 = biological target: DLG2_2, Q15700
TIAM2, Q8IVF5 = biological target: T4, TIAM2, Q8IVF5
T4 sequence (Q8IVF5 885-986, limits assumed, looked up): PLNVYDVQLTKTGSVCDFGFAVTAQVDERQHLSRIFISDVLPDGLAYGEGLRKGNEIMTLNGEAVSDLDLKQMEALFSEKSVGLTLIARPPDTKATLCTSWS

Inadl_6, Q8NI35 = biological target: Inadl_6, Q8NI35
SCRIB_2, Q14160 = biological target: SCRIB_2, Q14160
PDZD2_2, O15018 = biological target: T5, PDZD2_2, O15018
T5 sequence (O15018 329-429, limits assumed, looked up): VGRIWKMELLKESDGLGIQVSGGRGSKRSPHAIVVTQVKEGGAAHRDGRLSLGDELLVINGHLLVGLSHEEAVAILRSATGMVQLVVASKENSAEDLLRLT

PDZRN3_1, Q9UPQ7 = biological target: T6, PDZRN3_1, Q9UPQ7
T6 sequence (Q9UPQ7 244-349, limits assumed, looked up): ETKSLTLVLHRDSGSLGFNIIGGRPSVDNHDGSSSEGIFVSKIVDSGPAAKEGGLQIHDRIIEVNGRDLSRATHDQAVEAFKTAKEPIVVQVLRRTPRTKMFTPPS

HTRA4, P83105 = biological target: T7, HTRA4, P83105
T7 sequence (P83105 378-476, limits assumed, looked up): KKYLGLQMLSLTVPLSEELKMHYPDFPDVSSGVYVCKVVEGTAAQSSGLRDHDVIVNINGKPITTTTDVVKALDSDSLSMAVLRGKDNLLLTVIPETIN

LIN7C, Q9NUP9 = biological target: T8, LIN7C, Q9NUP9
T8 sequence (Q9NUP9 88-185, limits assumed, looked up): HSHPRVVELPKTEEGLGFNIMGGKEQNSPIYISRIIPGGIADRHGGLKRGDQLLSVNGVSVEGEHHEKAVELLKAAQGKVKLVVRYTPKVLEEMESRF

DLG1_3, Q12959 = biological target: DLG1_3, Q12959
LAP2, Q96RT1 = biological target: LAP2, Q96RT1
AHNAK1, Q09666 = biological target: AHNAK1, Q09666
GRIP1_4, Q9Y3R0 = biological target: T9, GRIP1_4, Q9Y3R0
T9 sequence (Q9Y3R0 467-571, limits assumed, looked up): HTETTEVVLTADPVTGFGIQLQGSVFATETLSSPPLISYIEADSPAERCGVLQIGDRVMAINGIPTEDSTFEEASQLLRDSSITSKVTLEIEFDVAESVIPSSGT

SNX27, Q96L92 = biological target: SNX27, Q96L92
ARHGEF11, O15085 = biological target: T10, ARHGEF11, O15085
T10 sequence (O15085 42-136, limits assumed, looked up): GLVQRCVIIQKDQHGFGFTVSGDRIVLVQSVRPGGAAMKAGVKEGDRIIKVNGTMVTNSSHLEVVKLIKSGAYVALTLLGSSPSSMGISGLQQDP

IL16_4, Q14005 = biological target: IL16_4, Q14005
NHERF3_4, Q5T2W1 = biological target: T11, NHERF3_4, Q5T2W1
T11 sequence (Q5T2W1 373-468, limits assumed, looked up): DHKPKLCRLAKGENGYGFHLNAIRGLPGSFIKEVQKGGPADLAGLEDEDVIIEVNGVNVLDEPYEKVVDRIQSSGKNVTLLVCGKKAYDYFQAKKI

LNX1_2, Q8TBB1 = biological target: LNX1_2, Q8TBB1
SNTG2, Q9NY99 = biological target: T12, SNTG2, Q9NY99
T12 sequence (Q9NY99 68-166, limits assumed, looked up): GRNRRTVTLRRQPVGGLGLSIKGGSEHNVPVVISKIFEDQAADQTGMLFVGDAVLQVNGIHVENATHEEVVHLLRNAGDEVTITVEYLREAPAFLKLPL

TJP1_3, Q07157 = biological target: TJP1_3, Q07157
Chain of TJP1_3, Q07157 (Q07157 416-512): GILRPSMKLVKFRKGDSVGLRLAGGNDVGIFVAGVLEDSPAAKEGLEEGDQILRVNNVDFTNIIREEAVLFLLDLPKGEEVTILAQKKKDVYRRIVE

Chain of SCRIB_2, Q14160 (Q14160 857-960): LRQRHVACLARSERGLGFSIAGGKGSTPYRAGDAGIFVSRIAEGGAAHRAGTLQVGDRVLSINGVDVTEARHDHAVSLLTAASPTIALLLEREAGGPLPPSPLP
Chain of Inadl_6, Q8NI35 (Q8NI35 1058-1167): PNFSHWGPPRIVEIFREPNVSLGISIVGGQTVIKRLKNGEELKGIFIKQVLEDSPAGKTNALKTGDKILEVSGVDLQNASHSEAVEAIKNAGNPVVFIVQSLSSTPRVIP
Chain of LAP2, Q96RT1 (Q96RT1 other isoform, or with tags, fused parts or gaps): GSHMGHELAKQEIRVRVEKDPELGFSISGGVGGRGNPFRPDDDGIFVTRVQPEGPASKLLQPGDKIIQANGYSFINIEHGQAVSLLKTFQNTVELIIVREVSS
Chain of DLG1_3, Q12959 (Q12959 457-571): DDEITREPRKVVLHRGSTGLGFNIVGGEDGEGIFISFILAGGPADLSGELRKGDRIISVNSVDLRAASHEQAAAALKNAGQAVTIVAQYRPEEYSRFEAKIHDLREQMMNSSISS
Chain of FRMPD2_2, Q68DX3 (Q68DX3 944-1038): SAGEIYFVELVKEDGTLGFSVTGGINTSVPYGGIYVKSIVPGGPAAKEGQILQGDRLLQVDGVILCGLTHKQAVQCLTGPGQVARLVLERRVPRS
Chain of IL16_4, Q14005 (Q14005 1229-1329): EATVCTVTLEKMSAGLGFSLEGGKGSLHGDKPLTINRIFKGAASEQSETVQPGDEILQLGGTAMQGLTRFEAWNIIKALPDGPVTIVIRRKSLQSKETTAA
Chain of MAGI2_4, Q86UL8 (Q86UL8 772-865): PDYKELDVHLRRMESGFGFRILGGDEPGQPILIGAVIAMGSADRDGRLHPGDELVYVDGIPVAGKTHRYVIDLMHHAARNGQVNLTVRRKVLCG
Chain of LNX1_3, Q8TBB1 (Q8TBB1 500-596): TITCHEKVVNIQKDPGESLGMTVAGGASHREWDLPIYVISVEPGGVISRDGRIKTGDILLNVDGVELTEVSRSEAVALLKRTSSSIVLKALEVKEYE
Chain of AHNAK1, Q09666 (Q09666 4-100): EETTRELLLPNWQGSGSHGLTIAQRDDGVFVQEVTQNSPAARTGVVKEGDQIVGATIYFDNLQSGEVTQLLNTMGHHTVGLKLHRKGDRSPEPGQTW
Chain of LNX1_2, Q8TBB1 (Q8TBB1 371-470): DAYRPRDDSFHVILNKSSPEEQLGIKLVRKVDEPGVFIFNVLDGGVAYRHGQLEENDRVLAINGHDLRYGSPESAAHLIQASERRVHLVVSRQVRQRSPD
Chain of DLG2_2, Q15700 (Q15700 189-283): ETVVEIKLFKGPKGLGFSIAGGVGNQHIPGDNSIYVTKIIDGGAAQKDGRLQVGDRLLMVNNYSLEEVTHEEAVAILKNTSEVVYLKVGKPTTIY
Chain of Inadl_3, Q8NI35 (Q8NI35 359-469): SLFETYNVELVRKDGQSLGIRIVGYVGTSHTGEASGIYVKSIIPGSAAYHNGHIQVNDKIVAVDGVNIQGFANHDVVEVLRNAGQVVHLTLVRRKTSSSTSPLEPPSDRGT

Binder	pKd (SNTB1, Q13884)	pKd (Inadl_3, Q8NI35)	pKd (FRMPD2_2, Q68DX3)	pKd (APBA3_1, O96018)	pKd (LNX2_3, Q8N448)	pKd (MAGI2_4, Q86UL8)	pKd (LNX1_3, Q8TBB1)	pKd (DLG2_2, Q15700)	pKd (TIAM2, Q8IVF5)	pKd (Inadl_6, Q8NI35)	pKd (SCRIB_2, Q14160)	pKd (PDZD2_2, O15018)	pKd (PDZRN3_1, Q9UPQ7)	pKd (HTRA4, P83105)	pKd (LIN7C, Q9NUP9)	pKd (DLG1_3, Q12959)	pKd (LAP2, Q96RT1)	pKd (AHNAK1, Q09666)	pKd (GRIP1_4, Q9Y3R0)	pKd (SNX27, Q96L92)	also measured
PALKNGQYWV [CSPG4, Q6UVK1]	below the threshold	3.58	below the threshold	below the threshold	below the threshold	3.82	below the threshold	below the threshold	4.83	below the threshold	below the threshold	5.45	below the threshold	4.14	4.15	below the threshold	3.75	below the threshold	below the threshold	3.77	pKd (ARHGEF11, O15085): 3.8; pKd (IL16_4, Q14005): below the threshold; pKd (NHERF3_4, Q5T2W1): below the threshold; pKd (LNX1_2, Q8TBB1): 4.27; pKd (SNTG2, Q9NY99): below the threshold; pKd (TJP1_3, Q07157): 3.95
WAKEKQHTRL [SLC17A1, Q14916]	3.82	below the threshold	below the threshold	below the threshold	below the threshold	below the threshold	below the threshold	3.82	below the threshold	below the threshold	below the threshold	below the threshold	3.79	below the threshold	below the threshold	below the threshold	below the threshold	below the threshold	below the threshold	4.28	pKd (ARHGEF11, O15085): 4.25; pKd (IL16_4, Q14005): below the threshold; pKd (NHERF3_4, Q5T2W1): 4.11; pKd (LNX1_2, Q8TBB1): below the threshold; pKd (SNTG2, Q9NY99): 4.15; pKd (TJP1_3, Q07157): below the threshold
YAEKRMLTEV [KCNA6, P17658]	below the threshold	below the threshold	below the threshold	below the threshold	below the threshold	4.34	below the threshold	4.15	3.99	below the threshold	below the threshold	4.34	below the threshold	4.38	3.52	below the threshold	below the threshold	below the threshold	below the threshold	below the threshold	pKd (ARHGEF11, O15085): 5.03; pKd (IL16_4, Q14005): below the threshold; pKd (NHERF3_4, Q5T2W1): below the threshold; pKd (LNX1_2, Q8TBB1): 3.51; pKd (SNTG2, Q9NY99): below the threshold; pKd (TJP1_3, Q07157): below the threshold
FLVTEFNVML [DFNB31, Q9P202]	below the threshold	4.73	below the threshold	below the threshold	below the threshold	below the threshold	below the threshold	below the threshold	3.59	below the threshold	below the threshold	3.63	below the threshold	below the threshold	below the threshold	below the threshold	below the threshold	below the threshold	below the threshold	4.4	pKd (ARHGEF11, O15085): 3.95; pKd (IL16_4, Q14005): below the threshold; pKd (NHERF3_4, Q5T2W1): 4.55; pKd (LNX1_2, Q8TBB1): below the threshold; pKd (SNTG2, Q9NY99): below the threshold; pKd (TJP1_3, Q07157): below the threshold
